Assays:
RPE-J cells = assay: In vitro pulse-chase phagocytosis assay with opsin immunoblotting; format: cell-based, rat; conditions: CIB2 overexpression vs control, chase 6 h
Excerpt: FIG. 12. CIB2 mutant mice have less autophagy/lysosomal proteins, and overexpression of CIB2. in vitro, is sufficient to boost levels of autophagy/lysosomal proteins and clearance of opsin. a. […] Pro-cathepsin D levels were quantified from non-saturated exposures. c. Representative immunoblots for indicated autophagy/lysosomal proteins from RPE-J cells transiently transfected with GFP or CIB2-IRES-GFP. Endogenous CIB2 is observable in long exposure immunoblot, while transiently overexpressed CIB2 is readily observable in short exposure immunoblot. d. Quantification for immunoblots shown in (c). n=5 (LAMP-1) or 4 (ATG5-ATG12) independent transfection experiments. e, Schematic of the pulse-chase phagocytosis assay (left panel)—also see Examples below. […]
Complementary to the findings of Cib2 mutant mice, over-expressing CIB2 in RPE-J cells increased LAMP-1 and ATG5-ATG12 complex proteins levels (FIG. 12c-d). […] To test this idea, we assessed LC3-II flux. LC3-I is a cytosolic protein which when lipidated with a phosphatidylethanolamine adduct (LC3-II form) localizes to the growing auto/phagosome membrane, and thus can be used as a reliable readout for the dynamic autophagic process (Valapala et al., Autophagy 10, 480-496 (2014); Kim et al., Noncanonical Autophagy Promotes the Visual Cycle. Cell 154, 365-376 (2013); Klionsky et al., Autophagy 12, 1-222 (2016)). […]

Rheb = assay: Co-IP of tdTomato-CIB2 with HA-GST-Rheb and Rheb variants; format: binding; conditions: co-IP assay
Procedure: FIG. 3. […] Note the stronger interaction between CIB2 and Rheb S20N variant as compared to Q64L variant (GDP vs GTP mimetic, respectively). c, CIB2 preferentially interacts with GDP-loaded Rheb is further confirmed by co-IP experiments of HA-GST-Rheb immobilized on […] and loaded with either GDP or GTPγS, followed by incubation with tdTomato-CIB2 lysate. d, Proposed model of CIB2 function in retinal sensory cells. […] Loss of CIB2 results in reduced autophagy and exacerbated mTORC1 signaling, thus leading to RPE pathology and secondary PR dysfunction. e, f Immunoblots from RPE/choroid lysates from dry AMD or control age-matched donors indicate reduced CIB2 expression, overactive mTORC1 and reduced autophagy, quantified in panel f. Unpaired two-tailed 1 test was used to determine statistical significance. p value of <0.05 (*), <0.01 (**), and <0.001 (***). Please note that one control sample (ψ) is outliner and is highly variant from the rest, Re-quantification, omitting the highly variant control sample, is shown in FIG. 15. g.
We tested the essentiality of nucleotide binding state of Rheb using co-IP assays. […] Next, we used the Q64L and […] Rheb variants, which mimic the GTP- and GDP-bound state, respectively. […]

B1: CIB2: calcium and integrin binding protein 2, over-expressed in cells from plasmid constructs; SEQ ID NO:1 (human), SEQ ID NO:2 (mouse) (protein)
chain: MGNKQTIFTEEQLDNYQDCTFFNKKDILKLHARFYELAPNLVPMDYRKSPIVHVPMSLIIQMPELRENPFKERIVEAFSEDGEGNLTFNDFVDMFSVLCESAPRELKANYAFKIYDFNTDNFICKEDLEMTLARLTKSELEEDEVVLVCDKVIEEADLDGDGKLGFADFEDMIAKAPDFLSTFHIRI
modifications: left off: large carriers
- Opsin 6 hr later (digestion phase) (RPE-J cells): less opsin
- Binding preference among Rheb-WT, Q64L (GTP mimetic) and S20L (GDP mimetic) variants (Rheb): bound preferentially to the S20L variant

— patent publication US12661385B2, “Modulation of mTORCI activity and autophagy via CIB2-RHEB interaction” (University of Maryland, Baltimore, priority 2018, dated 2026)
